Data published in article PMC9038631 (Journal of neuroendocrinology, 2022).

Target: T1, aromatase (rat (endogenous in hypothalamus and …, UniProt P22443 1-508))
T1 sequence (looked up): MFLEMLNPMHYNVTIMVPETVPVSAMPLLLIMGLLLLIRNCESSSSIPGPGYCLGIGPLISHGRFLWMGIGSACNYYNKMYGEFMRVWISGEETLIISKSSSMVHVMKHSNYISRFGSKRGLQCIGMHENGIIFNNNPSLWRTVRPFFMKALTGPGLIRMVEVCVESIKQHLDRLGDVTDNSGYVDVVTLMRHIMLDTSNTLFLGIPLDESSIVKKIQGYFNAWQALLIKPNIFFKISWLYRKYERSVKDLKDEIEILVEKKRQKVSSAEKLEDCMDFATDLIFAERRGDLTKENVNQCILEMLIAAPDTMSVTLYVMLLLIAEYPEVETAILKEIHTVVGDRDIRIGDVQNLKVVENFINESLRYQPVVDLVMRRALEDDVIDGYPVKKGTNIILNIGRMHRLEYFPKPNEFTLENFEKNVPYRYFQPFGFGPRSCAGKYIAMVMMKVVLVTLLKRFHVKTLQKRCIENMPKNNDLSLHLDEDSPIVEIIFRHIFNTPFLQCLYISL
Experiment: co-IP

B1: protein phosphatase 5 (PP5) (enzyme, UniProt P53042 1-499, looked up)
chain: MAMAEGERTECAEPPRDEPPAEGTLKRAEELKTQANDYFKAKDYENAIKFYSQAIELNPSNAIYYGNRSLAYLRTECYGYALGDATRAIELDKKYIKGYYRRAASNMALGKFRAALRDYETVVKVKPNDKDAKMKYQECSKIVKQKAFERAIAGDEHRRSVVDSLDIESMTIEDEYSGPKLEDGKVTITFMKDLMQWYKDQKKLHRKCAYQILVQVKEVLCKLSTLVETTLKETEKITVCGDTHGQFYDLLNIFELNGLPSETNPYIFNGDFVDRGSFSVEVILTLFGFKLLYPDHFHLLRGNHETDNMNQIYGFEGEVKAKYTAQMYELFSEVFEWLPLAQCINGKVLIMHGGLFSEDGVTLDDIRKIERNRQPPDSGPMCDLLWSDPQPQNGRSVSKRGVSCQFGPDVTKAFLEENQLDYIIRSHEVKAEGYEVAHGGRCVTVFSAPNYCDQMGNKASYIHLQGSDLRPQFHQFTAVPHPNVKPMAYANTLLQLGMM
  fold more co-IPed with hypothalamic than with spinal aromatase: 5.4 fold
